Results published in US20180327500A1 (SYMPHOGEN A S, published 2018).
Residue numbers refer to the chain shown, from its start.

B1: humanized antibody 9338 (antibody, human IgG1, kappa, V domains shown)
VH: QVQLVQSGAEVKKPGSSVKVSCKASGYTFTSYWMHWVRQAPGQGLEWMGYINPSSGHIENNQKFKDRVTITADKSTSTAYMELSSLRSEDTAVYYCARGRFAYWGQGTLVTVSS
VL: EIVLTQSPATLSLSPGERATLSCSASSSVSSGYLYWYQQKPGQAPRLLIYSTSNLASGIPARFSGSGSGTDFTLTISSLEPEDFAVYYCHQWSSYPFTFGSGTKLEIKR
notes: also called Hu9338; hu9338
B2: humanized antibody 9006 (antibody, human IgG1, kappa, V domains shown)
VH: QVQLVQSGSELKKPGASVKVSCKASGYTFTNFRMNWVKQAPGQGLKWMGWINTYTGEPTYVDDLKGRFVFSLDTSVSTAYLQISSLKAEDTAVYYCARKGIARAMDYWGQGTTVTVSS
VL: DIVMTQSPDSLAVSLGERATINCKSSQSLLDSGNQKNYLAWYQQKPGQPPKLLIFGASTRESGVPDRFSGSGSGTDFTLTISSLQAEDVAVYYCQNDHSYPYTFGQGTKLEIKR
notes: also called Hu9006; hu9006

Key:
Mouse Blade 1-6 = biological target: T1, Mouse Blade 1-6; experiment: flow cytometry on transfected HEK293 cells;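 further: antibodies applied at 50 µg/ml, binding called specific when fluorescence exceeds the mean signal on a negative control chicken or mouse MET construct plus four SD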
T1 construct: human/mouse chimera on transfected HEK293 cells; also called AA 25-479
Procedure: (§1) Cut-off values defined as the average fluorescence signal of all antibodies tested at 50 μg/ml to the negative control chicken or mouse MET construct+four standard deviations were employed to discriminate background binding from specific binding for the domain exchange or blade exchange constructs.
T1 MET ECD-SV5-GPI fusion: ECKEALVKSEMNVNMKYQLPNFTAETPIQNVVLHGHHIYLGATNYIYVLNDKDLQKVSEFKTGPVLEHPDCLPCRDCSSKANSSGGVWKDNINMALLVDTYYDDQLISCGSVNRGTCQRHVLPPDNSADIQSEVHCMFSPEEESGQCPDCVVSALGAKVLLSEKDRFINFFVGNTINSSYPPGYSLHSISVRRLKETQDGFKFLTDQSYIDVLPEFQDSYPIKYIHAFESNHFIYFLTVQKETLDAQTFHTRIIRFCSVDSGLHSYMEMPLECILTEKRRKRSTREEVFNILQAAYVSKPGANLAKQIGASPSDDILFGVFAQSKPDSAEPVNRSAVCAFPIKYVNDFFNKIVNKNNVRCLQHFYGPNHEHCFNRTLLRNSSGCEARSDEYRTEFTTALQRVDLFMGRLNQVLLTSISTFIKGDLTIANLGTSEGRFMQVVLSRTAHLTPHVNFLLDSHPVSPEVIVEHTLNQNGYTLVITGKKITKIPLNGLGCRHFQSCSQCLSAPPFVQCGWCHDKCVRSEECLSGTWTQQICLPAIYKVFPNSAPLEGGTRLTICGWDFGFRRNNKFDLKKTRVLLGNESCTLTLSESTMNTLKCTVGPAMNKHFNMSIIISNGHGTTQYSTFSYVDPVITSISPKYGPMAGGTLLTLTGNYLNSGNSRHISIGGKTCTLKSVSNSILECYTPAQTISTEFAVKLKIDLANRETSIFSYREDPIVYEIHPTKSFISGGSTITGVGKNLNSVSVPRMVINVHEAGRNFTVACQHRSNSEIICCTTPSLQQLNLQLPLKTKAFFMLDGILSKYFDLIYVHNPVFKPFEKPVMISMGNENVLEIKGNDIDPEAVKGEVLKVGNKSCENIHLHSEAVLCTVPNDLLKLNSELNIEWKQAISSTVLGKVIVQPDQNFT

LS3 = biological target: T2, LS3; experiment: flow cytometry on transfected HEK293 cells;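 further: antibodies applied at 50 µg/ml, binding called specific when fluorescence exceeds the mean signal on a negative control chicken or mouse MET construct plus four SD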
T2 construct: human/mouse chimera on transfected HEK293 cells; also called AA 25-312
Procedure: as §1
T2 MET ECD-SV5-GPI fusion: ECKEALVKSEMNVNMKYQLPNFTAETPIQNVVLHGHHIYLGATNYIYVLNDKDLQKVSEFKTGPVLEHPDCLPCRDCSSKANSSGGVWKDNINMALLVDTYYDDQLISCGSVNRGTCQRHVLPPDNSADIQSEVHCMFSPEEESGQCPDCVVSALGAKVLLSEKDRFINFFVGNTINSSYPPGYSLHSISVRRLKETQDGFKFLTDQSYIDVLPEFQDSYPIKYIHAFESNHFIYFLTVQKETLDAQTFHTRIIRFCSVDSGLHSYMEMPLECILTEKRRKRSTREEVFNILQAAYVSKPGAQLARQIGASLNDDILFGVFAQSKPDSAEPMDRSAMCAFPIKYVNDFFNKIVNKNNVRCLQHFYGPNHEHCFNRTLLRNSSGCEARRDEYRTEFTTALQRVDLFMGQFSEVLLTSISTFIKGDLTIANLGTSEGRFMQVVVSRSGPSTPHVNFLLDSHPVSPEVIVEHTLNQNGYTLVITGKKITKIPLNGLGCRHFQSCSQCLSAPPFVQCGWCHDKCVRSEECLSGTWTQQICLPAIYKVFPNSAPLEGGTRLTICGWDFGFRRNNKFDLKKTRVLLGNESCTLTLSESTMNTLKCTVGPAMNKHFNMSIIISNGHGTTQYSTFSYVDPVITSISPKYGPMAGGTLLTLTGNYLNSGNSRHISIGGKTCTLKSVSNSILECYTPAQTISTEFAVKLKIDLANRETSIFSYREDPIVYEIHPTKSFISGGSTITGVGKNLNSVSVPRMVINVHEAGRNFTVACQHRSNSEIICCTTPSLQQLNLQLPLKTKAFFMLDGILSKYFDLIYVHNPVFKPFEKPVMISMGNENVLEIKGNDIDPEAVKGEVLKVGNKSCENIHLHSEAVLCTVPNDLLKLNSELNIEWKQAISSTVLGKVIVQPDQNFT

Mouse Blade 1-4 = biological target: T3, Mouse Blade 1-4; experiment: flow cytometry on transfected HEK293 cells;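 further: antibodies applied at 50 µg/ml, binding called specific when fluorescence exceeds the mean signal on a negative control chicken or mouse MET construct plus four SD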
T3 construct: human/mouse chimera on transfected HEK293 cells; also called AA 25-295
Procedure: as §1
T3 MET ECD-SV5-GPI fusion: T2 MET ECD-SV5-GPI fusion with R280K, R285K, E286K

[1] = biological target: T4, His tagged cynomolgus MET ECD (Sinobiological) (cynomolgus); experiment: SPR (Bio-Rad XPR-36); antibody captured on anti-human IgG Fc surface, MET ECD 25 to 1.56 nM, 1:1 Langmuir fit
T4 construct: extracellular domain; Bought monovalent antigen
Procedure: His tagged human or cynomolgus MET ECD antigens were purchased from Sinobiological, China. […] Measurements were conducted with a plate rotation speed of 1000 rpm and sensors were regenerated and reused by brief 5 second alternations between exposure to 10 mM Glycine:HCl buffer (pH 1.5) or PBS buffer containing 1% BSA and 0.001% Tween 20 three times. For the Surface Plasmon Resonance experiments conducted on the Bio-Rad XPR-36 instrument, anti-MET antibodies were adjusted to a concentration of 0.25-0.5 μg/ml and captured on anti-human IgG Fc surfaces generated by immobilizing a monoclonal anti-human Fc antibody (Biacore, Denmark). […] The recorded binding responses were fitted to a simple Langmuir 1:1 binding model for calculation of the on-rate (kon or ka), off-rate (koff or kd) and affinity (KD) constants using double referencing.

Binder | binding result (Mouse Blade 1-6) | binding result (LS3) | binding result (Mouse Blade 1-4) | Kd [1] | koff [1] | kon [1]
B1 | no binding (tested: 50 µg/ml) | no binding (tested: 50 µg/ml) | no binding (tested: 50 µg/ml) | 74 pM | 5.4e-05 s⁻¹ | 740000 M⁻¹ s⁻¹
B2 | no binding (tested: 50 µg/ml) | no binding (tested: 50 µg/ml) | no binding (tested: 50 µg/ml) | 86 pM | 1.6e-05 s⁻¹ | 180000 M⁻¹ s⁻¹
